Results on 19 molecules are retold here after patent publication US9266964.

The target of experiment [1] is T1, human plasma kallikrein (human, UniProt P03952 20-390; P03952 391-638).
T1 construct: two disulfide-linked chains; also called pKal; human pKal
Description: Ki,app, inhibition of human pKal enzyme activity.

The target of experiment [2] is T1, human plasma kallikrein. As to the kind of experiment: cell-based or functional assay.

T1 sequence (P03952 20-390, chain 1 of 2): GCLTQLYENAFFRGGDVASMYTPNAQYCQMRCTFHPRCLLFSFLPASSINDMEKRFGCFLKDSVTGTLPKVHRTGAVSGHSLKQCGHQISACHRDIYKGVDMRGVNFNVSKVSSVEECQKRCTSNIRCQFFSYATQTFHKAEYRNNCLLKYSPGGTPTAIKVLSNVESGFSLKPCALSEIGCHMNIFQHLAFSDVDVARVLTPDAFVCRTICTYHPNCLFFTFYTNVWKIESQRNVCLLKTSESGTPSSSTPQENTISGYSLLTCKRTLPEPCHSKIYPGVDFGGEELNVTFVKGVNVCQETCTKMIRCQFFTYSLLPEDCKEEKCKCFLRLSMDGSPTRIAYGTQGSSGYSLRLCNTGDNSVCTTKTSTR
T1 sequence (P03952 391-638, chain 2 of 2): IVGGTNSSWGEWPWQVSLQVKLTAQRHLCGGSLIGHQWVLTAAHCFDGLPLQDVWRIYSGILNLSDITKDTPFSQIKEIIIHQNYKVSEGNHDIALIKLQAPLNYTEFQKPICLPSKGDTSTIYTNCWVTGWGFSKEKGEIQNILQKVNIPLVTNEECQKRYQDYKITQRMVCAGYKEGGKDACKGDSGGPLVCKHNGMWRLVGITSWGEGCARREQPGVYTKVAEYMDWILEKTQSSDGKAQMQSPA

B1: M208-F10 (Fab, V domains shown)
VH: EVQLLESGGGLVQPGGSLRLSCAASGFTFSHYLMTWVRQAPGKGLEWVSYISPSGGHTIYADSVKGRFTISRDNSKNTLYLQMNSLRAEDTAVYYCARVARGIAARSRTSYFDQWGQGTLVTVSS
VL: DIQMTQSPGTLSLSPGERATLSCRTSQFVNSNYLAWYQQTPGQAPRLLIYGASSRATGIPDRFSGTGYGTDFTLTISRLEPEDYGTYYCQQSSRTPWTFGQGTRVEIK
notes: Tested as Fab; printed HC runs into CH1; amber q written Q
B1 showed a Ki with human plasma kallikrein [1] of 0.2 nM. Further, in the experiment with human plasma kallikrein [2], the “% inhibition at 10 nM” value stood at 92.5%.

B2: M209-E02 (Fab, V domains shown)
VH: EVQLLESGGGLVQPGGSLRLSCAASGFTFSHYLMTWVRQAPGKGLEWVSYISPSGGHTIYADSVKGRFTISRDNSKNTLYLQMNSLRAEDTAVYYCARVARGIAARSRTILLDQWGQGTLVTVSS
VL: DIQMTQSPGTLSLSPGERATLSCRTSQFVNSNYLAWYQQTPGQAPRLLIYGASSRATGIPDRFSGTGYGTDFTLTISRLEPEDYGTYYCQQSSRTPWTFGQGTRVEIK
notes: as for B1
Regarding B2, the Ki in the experiment with human plasma kallikrein [1] was determined as 0.3 nM. In the experiment with human plasma kallikrein [2], the “% inhibition at 10 nM” value was determined as 92.4%.

B3: M208-H02 (Fab, V domains shown)
VH: EVQLLESGGGLVQPGGSLRLSCAASGFTFSHYLMTWVRQAPGKGLEWVSYISPSGGHTIYADSVKGRFTISRDNSKNTLYLQMNSLRAEDTAVYYCARVARGIASRSRTRYCDYWGQGTLVTVSS
VL: DIQMTQSPGTLSLSPGERATLSCRTSQFVNSNYLAWYQQTPGQAPRLLIYGASSRATGIPDRFSGTGYGTDFTLTISRLEPEDYGTYYCQQSSRTPWTFGQGTRVEIK
notes: Tested as Fab; printed HC runs into CH1
Regarding B3, the Ki with human plasma kallikrein [1] amounted to 0.2 nM. Besides, the “% inhibition at 10 nM” value in the experiment with human plasma kallikrein [2] turned out to be 94.4%.

B4: M209-F04 (Fab, V domains shown)
VH: EVQLLESGGGLVQPGGSLRLSCAASGFTFSHYLMTWVRQAPGKGLEWVSYISPSGGHTIYADSVKGRFTISRDNSKNTLYLQMNSLRAEDTAVYYCARVARGIAARSRTSYLDQWSQGTLVTVSS
VL: DIQMTQSPGTLSLSPGERATLSCRTSQFVNSNYLAWYQQTPGQAPRLLIYGASSRATGIPDRFSGTGYGTDFTLTISRLEPEDYGTYYCQQSSRTPWTFGQGTRVEIK
notes: Tested as Fab; printed HC runs into CH1; amber q written Q; WSQGTL as printed
In the case of B4, the Ki in the experiment with human plasma kallikrein [1] is 0.09 nM. The “% inhibition at 10 nM” value with human plasma kallikrein [2] was 97.6%.

B5: M210-G10 (Fab, V domains shown)
VH: EVQLLESGGGLVQPGGSLRLSCAASGFTFSHYLMTWVRQAPGKGLEWVSYISPSGGHTIYADSVKGRFTISRDNSKNTLYLQMNSLRAEDTAVYYCARVARGIAARSRTSYLDFWGQGTLVTVSS
VL: DIQMTQSPGTLSLSPGERATLSCRTSQFVNSNYLAWYQQTPGQAPRLLIYGASSRATGIPDRFSGTGYGTDFTLTISRLEPEDYGTYYCQQSSRTPWTFGQGTRVEIK
notes: as for B3
Turning to B5, in the experiment with human plasma kallikrein [1], the Ki was 0.4 nM. Further, in the experiment with human plasma kallikrein [2], the “% inhibition at 10 nM” value stood at 91.2%.

B6: M208-F04 (Fab, V domains shown)
VH: EVQLLESGGGLVQPGGSLRLSCAASGFTFSHYLMTWVRQAPGKGLEWVSYISPSGGHTIYADSVKGRFTISRDNSKNTLYLQMNSLRAEDTAVYYCARVARGIAARSRTSFFDYWGQGTLVTVSS
VL: DIQMTQSPGTLSLSPGERATLSCRTSQFVNSNYLAWYQQTPGQAPRLLIYGASSRATGIPDRFSGTGYGTDFTLTISRLEPEDYGTYYCQQSSRTPWTFGQGTRVEIK
notes: as for B3
Take B6: the Ki in the experiment with human plasma kallikrein [1] is 0.2 nM. Also, in the experiment with human plasma kallikrein [2], the “% inhibition at 10 nM” value came out at 95.4%.

B7: M205-D04 (Fab, V domains shown)
VH: EVQLLESGGGLVQPGGSLRLSCAASGFTFSTYKMQWVRQAPGKGLEWVSSISPSGGPTNYADSVKGRFTISRDNSKNTLYLQMNSLRAEDTAVYYCARVARGIAARSRTSYFDYWGQGTLVTVSS
VL: DIQMTQSPGTLSLSPGERATLSCRTSQFVNSNYLAWYQQTPGQAPRLLIYGASSRATGIPDRFSGTGYGTDFTLTISRLEPEDYGTYYCQQSSRTPWTFGQGTRVEIK
notes: as for B1
Turning to B7, in the experiment with human plasma kallikrein [1], the Ki is 0.4 nM. Besides, in the experiment with human plasma kallikrein [2], the “% inhibition at 10 nM” value was determined as 91.5%.

B8: M206-H08 (Fab, V domains shown)
VH: EVQLLESGGGLVQPGGSLRLSCAASGFTFSDYMMAWVRQAPGKGLEWVSSIVPSGGHTHYADSVKGRFTISRDNSKNTLYLQMNSLRAEDTAVYYCARVARGIAARSRTSYFDYWGQGTLVTVSS
VL: DIQMTQSPGTLSLSPGERATLSCRTSQFVNSNYLAWYQQTPGQAPRLLIYGASSRATGIPDRFSGTGYGTDFTLTISRLEPEDYGTYYCQQSSRTPWTFGQGTRVEIK
notes: as for B3
Regarding B8, the Ki with human plasma kallikrein [1] is 0.17 nM. The “% inhibition at 10 nM” value with human plasma kallikrein [2] was 96%.

B9: M210-H06 (Fab, V domains shown)
VH: EVQLLESGGGLVQPGGSLRLSCAASGFTFSHYLMTWVRQAPGKGLEWVSYISPSGGHTIYADSVKGRFTISRDNSKNTLYLQMNSLRAEDTAVYYCARVARGIAARSRTRYFDYWGQGTLVTVSS
VL: DIQMTQSPGTLSLSPGERATLSCRTSQFVNSNYLAWYQQTPGQAPRLLIYGASSRATGIPDRFSGTGYGTDFTLTISRLEPEDYGTYYCQQSSRTPWTFGQGTRVEIK
notes: as for B3
On to B9, for which the Ki with human plasma kallikrein [1] worked out at 0.2 nM. Besides, the “% inhibition at 10 nM” value in the experiment with human plasma kallikrein [2] was 93.8%.

B10: M209-B09 (Fab, V domains shown)
VH: EVQLLESGGGLVQPGGSLRLSCAASGFTFSHYLMTWVRQAPGKGLEWVSYISPSGGHTIYADSVKGRFTISRDNSKNTLYLQMNSLRAEDTAVYYCARVAQGIVARSRTSYLHQWGQGTLVTVSS
VL: DIQMTQSPGTLSLSPGERATLSCRTSQFVNSNYLAWYQQTPGQAPRLLIYGASSRATGIPDRFSGTGYGTDFTLTISRLEPEDYGTYYCQQSSRTPWTFGQGTRVEIK
notes: as for B1
In turn, B10 registered a Ki with human plasma kallikrein [1] of 0.2 nM. Besides, the “% inhibition at 10 nM” value in the experiment with human plasma kallikrein [2] was found to be 93.5%.

B11: M208-G03 (Fab, V domains shown)
VH: EVQLLESGGGLVQPGGSLRLSCAASGFTFSHYLMTWVRQAPGKGLEWVSYISPSGGHTIYADSVKGRFTISRDNSKNTLYLQMNSLRAEDTAVYYCARVARGIAARSRTSYLDYWGQGTLVTVSS
VL: DIQMTQSPGTLSLSPGERATLSCRTSQFVNSNYLAWYQQTPGQAPRLLIYGASSRATGIPDRFSGTGYGTDFTLTISRLEPEDYGTYYCQQSSRTPWTFGQGTRVEIK
notes: as for B3
In the case of B11, in the experiment with human plasma kallikrein [1], the Ki came to 0.3 nM. Moreover, in the experiment with human plasma kallikrein [2], the “% inhibition at 10 nM” value is 93.4%.

B12: M210-C12 (Fab, V domains shown)
VH: EVQLLESGGGLVQPGGSLRLSCAASGFTFSHYLMTWVRQAPGKGLEWVSYISPSGGHTIYADSVKGRFTISRDNSKNTLYLQMNSLRAEDTAVYYCARVAQGIAARSRTSSVDQWGQGTLVTVSS
VL: DIQMTQSPGTLSLSPGERATLSCRTSQFVNSNYLAWYQQTPGQAPRLLIYGASSRATGIPDRFSGTGYGTDFTLTISRLEPEDYGTYYCQQSSRTPWTFGQGTRVEIK
notes: as for B1
Consider B12, for which the Ki in the experiment with human plasma kallikrein [1] amounted to 0.16 nM. Also, the “% inhibition at 10 nM” value with human plasma kallikrein [2] stood at 95.6%.

B13: M210-B02 (Fab, V domains shown)
VH: EVQLLESGGGLVQPGGSLRLSCAASGFTFSHYLMTWVRQAPGKGLEWVSYISPSGGHTIYADSVKGRFTISRDNSKNTLYLQMNSLRAEDTAVYYCASVARGIAARSRTSYFNQWGQGTLVTVSS
VL: DIQMTQSPGTLSLSPGERATLSCRTSQFVNSNYLAWYQQTPGQAPRLLIYGASSRATGIPDRFSGTGYGTDFTLTISRLEPEDYGTYYCQQSSRTPWTFGQGTRVEIK
notes: as for B1
B13 came in with a Ki with human plasma kallikrein [1] of 0.2 nM. Further, the “% inhibition at 10 nM” value with human plasma kallikrein [2] was 90.9%.

B14: M206-B10 (Fab, V domains shown)
VH: EVQLLESGGGLVQPGGSLRLSCAASGFTFSQYLMAWVRQAPGKGLEWVSSIYPSGGWTKYADSVKGRFTISRDNSKNTLYLQMNSLRAEDTAVYYCARVARGIAARSRTSYFDYWGQGTLVTVSS
VL: DIQMTQSPGTLSLSPGERATLSCRTSQFVNSNYLAWYQQTPGQAPRLLIYGASSRATGIPDRFSGTGYGTDFTLTISRLEPEDYGTYYCQQSSRTPWTFGQGTRVEIK
notes: as for B1
Molecule B14 showed a Ki in the experiment with human plasma kallikrein [1] of 0.3 nM. Moreover, the “% inhibition at 10 nM” value in the experiment with human plasma kallikrein [2] was 94.7%.

B15: M206-F01 (Fab, V domains shown)
VH: EVQLLESGGGLVQPGGSLRLSCAASGFTFSGYMMVWVRQAPGKGLEWVSRISPSGGPTIYADSVKGRFTISRDNSKNTLYLQMNSLRAEDTAVYYCARVARGIAARSRTSYFDYWGQGTLVTVSS
VL: DIQMTQSPGTLSLSPGERATLSCRTSQFVNSNYLAWYQQTPGQAPRLLIYGASSRATGIPDRFSGTGYGTDFTLTISRLEPEDYGTYYCQQSSRTPWTFGQGTRVEIK
notes: as for B3
The molecule B15 registered a Ki with human plasma kallikrein [1] of 0.2 nM. Moreover, the “% inhibition at 10 nM” value in the experiment with human plasma kallikrein [2] amounted to 92.6%.

B16: M209-C11 (Fab, V domains shown)
VH: EVQLLESGGGLVQPGGSLRLSCAASGFTFSHYLMTWVRQAPGKGLEWVSYISPSGGHTIYADSVKGRFTISRDNSKNTLYLQMNSLRAEDTAVYYCAMVGQGIRGRSRTSYFAQWGQGTLVTVSS
VL: DIQMTQSPGTLSLSPGERATLSCRTSQFVNSNYLAWYQQTPGQAPRLLIYGASSRATGIPDRFSGTGYGTDFTLTISRLEPEDYGTYYCQQSSRTPWTFGQGTRVEIK
notes: as for B1
As for B16, the Ki with human plasma kallikrein [1] came out at 0.14 nM. Further, the “% inhibition at 10 nM” value with human plasma kallikrein [2] is 96.2%.

B17: M210-G04 (Fab, V domains shown)
VH: EVQLLESGGGLVQPGGSLRLSCAASGFTFSHYLMTWVRQAPGKGLEWVSYISPSGGHTIYADSVKGRFTISRDNSKNTLYLQMNSLRAEDTAVYYCARVATGIVARSRTRYFDQWGQGTLVTVSS
VL: DIQMTQSPGTLSLSPGERATLSCRTSQFVNSNYLAWYQQTPGQAPRLLIYGASSRATGIPDRFSGTGYGTDFTLTISRLEPEDYGTYYCQQSSRTPWTFGQGTRVEIK
notes: as for B1
The molecule B17 displayed a Ki with human plasma kallikrein [1] of 0.3 nM. The “% inhibition at 10 nM” value in the experiment with human plasma kallikrein [2] is 94.2%.

B18: M208-C06 (Fab, V domains shown)
VH: EVQLLESGGGLVQPGGSLRLSCAASGFTFSHYLMTWVRQAPGKGLEWVSYISPSGGHTIYADSVKGRFTISRDNSKNTLYLQMNSLRAEDTAVYYCARVARGIAARSRTSFIDYWGQGTLVTVSS
VL: DIQMTQSPGTLSLSPGERATLSCRTSQFVNSNYLAWYQQTPGQAPRLLIYGASSRATGIPDRFSGTGYGTDFTLTISRLEPEDYGTYYCQQSSRTPWTFGQGTRVEIK
notes: as for B3
For B18, the Ki with human plasma kallikrein [1] was 0.4 nM. Moreover, the “% inhibition at 10 nM” value with human plasma kallikrein [2] was found to be 91.7%.

B19: M208-E10 (Fab, V domains shown)
VH: EVQLLESGGGLVQPGGSLRLSCAASGFTFSHYLMTWVRQAPGKGLEWVSYISPSGGHTIYADSVKGRFTISRDNSKNTLYLQMNSLRAEDTAVYYCARVAQGISARSRTSYFDYWGQGTLVTVSS
VL: DIQMTQSPGTLSLSPGERATLSCRTSQFVNSNYLAWYQQTPGQAPRLLIYGASSRATGIPDRFSGTGYGTDFTLTISRLEPEDYGTYYCQQSSRTPWTFGQGTRVEIK
notes: as for B3
B19 displayed a Ki with human plasma kallikrein [1] of 0.09 nM. In addition, the “% inhibition at 10 nM” value with human plasma kallikrein [2] was 93.7%.

By % inhibition is commonly meant the percentage by which the read-out fell short of the control. Read a low % inhibition as little suppression.
